Experimental data: patent publication US5593834

Test system: AluI restriction endonuclease
Assay: cleavage_in_vitro
[1] = 8 mM MgCl2, 2 mM CaCl2, 10 mM Tris pH 7.5

With “ATATAGCTATAT (double strand) [(AT)2 12-mer]” the relative cleavage rate constant (fold kcomp vs (AA)2) (fastest substrate, 8 mM MgCl2, 2 mM CaCl2, 10 mM Tris pH 7.5, 16% glycerol) was 3.02.

For “ATATATAGCTATATAT (double strand) [(AT)3 16-mer]”, the binding signal (fold kcomp vs (AA)3) [1] was 2.95.

With “ATATATATAGCTATATATAT (double strand) [(AT)4 20-mer]” the binding signal (fold kcomp vs (AA)4) [1] was 3.
